This is an account of results in patent publication US20130143318A1 (BOARD OF REGENTS OF THE UNIVERSITY OF OKLAHOMA, published 2013).

The target in one assay is T1, human Rrn3 (human, UniProt Q9NYV6 1-651, limits assumed).
T1 construct: Two-hybrid fusion partner not described; also called hRrn3
The assay is described as follows: yeast two-hybrid.

The target of another assay is T2, mouse Rrn3 (mouse, UniProt B2RS91 1-656, limits assumed).
T2 construct: Two-hybrid fusion partner not described; also called mRrn3
The assay is described as follows: yeast two-hybrid.

T2 sequence (B2RS91 whole entry, the tested form may be a part): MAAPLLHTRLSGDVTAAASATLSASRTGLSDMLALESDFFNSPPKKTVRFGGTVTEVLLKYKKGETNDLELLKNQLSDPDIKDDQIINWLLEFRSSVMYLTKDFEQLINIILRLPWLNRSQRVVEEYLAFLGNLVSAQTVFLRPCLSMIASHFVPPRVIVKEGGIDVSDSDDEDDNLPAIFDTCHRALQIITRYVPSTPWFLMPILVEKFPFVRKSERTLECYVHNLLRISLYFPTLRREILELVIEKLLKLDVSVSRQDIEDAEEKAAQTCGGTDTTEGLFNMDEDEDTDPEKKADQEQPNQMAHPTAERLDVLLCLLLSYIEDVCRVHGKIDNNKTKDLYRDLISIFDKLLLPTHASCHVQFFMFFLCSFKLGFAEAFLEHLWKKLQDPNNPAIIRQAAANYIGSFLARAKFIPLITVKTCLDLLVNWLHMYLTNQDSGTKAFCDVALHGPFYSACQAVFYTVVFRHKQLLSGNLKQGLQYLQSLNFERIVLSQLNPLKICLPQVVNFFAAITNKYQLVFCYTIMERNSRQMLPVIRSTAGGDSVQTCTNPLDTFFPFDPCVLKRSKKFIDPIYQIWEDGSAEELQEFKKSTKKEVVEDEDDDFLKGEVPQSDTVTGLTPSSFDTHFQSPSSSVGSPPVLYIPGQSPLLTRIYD
T1 sequence (Q9NYV6 whole entry, the tested form may be a part): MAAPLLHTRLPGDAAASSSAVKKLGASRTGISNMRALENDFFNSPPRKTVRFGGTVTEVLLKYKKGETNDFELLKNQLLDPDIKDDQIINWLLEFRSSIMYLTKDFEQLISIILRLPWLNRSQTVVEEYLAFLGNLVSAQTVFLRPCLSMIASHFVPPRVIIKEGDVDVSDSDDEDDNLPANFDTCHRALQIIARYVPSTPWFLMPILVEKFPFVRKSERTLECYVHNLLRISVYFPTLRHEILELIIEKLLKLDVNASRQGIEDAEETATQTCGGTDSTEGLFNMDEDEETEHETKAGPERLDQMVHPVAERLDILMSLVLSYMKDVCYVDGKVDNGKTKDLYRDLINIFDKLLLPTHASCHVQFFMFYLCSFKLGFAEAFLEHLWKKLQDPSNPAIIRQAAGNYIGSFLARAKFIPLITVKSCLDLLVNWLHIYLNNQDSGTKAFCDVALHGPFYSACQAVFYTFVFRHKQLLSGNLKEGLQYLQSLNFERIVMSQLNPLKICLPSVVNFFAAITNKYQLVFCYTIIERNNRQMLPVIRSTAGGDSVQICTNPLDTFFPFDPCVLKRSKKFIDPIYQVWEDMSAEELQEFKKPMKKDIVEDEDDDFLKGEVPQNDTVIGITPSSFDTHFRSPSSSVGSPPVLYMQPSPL

B1: mouse Rpa43 (43 kDa subunit of RNA polymerase I), wild type (other, UniProt Q78WZ7 1-330, looked up)
chain: MAAGSVESQRSQAASERPVAGQAGVLPCLELPSYAAACALVGSRYSCLVAAPHRRHIALSPRYLSRKRTGIREQLDAELLRYSESLLGVPIAYDNIRVVGELGDIYDDQGHIHLNIEADFVIFCPEPGQTLMGTVNKVSSSHIGCLVHGCFNASIPKPEQMSYEEWQTLEIHVGDELEFDVFRLDSDSAGVFCIRGKLSTTSLQLKHSAVSEDVAETVVEEVVEKTPKKKKKKKDKDTDTCGTVDSVTEVADVTDVTPQEETDIPCSDNVNDFFEEEPKKKKKKKKRHQEDQDPIFQASDSSGYQSDHNKKKKKRKHSEEANFESPKKRQ
notes: also called mRPA43; wild type Rpa43
For the molecule B1, the binding result with human Rrn3 and with mouse Rrn3 was “binds” each time.
